Data: US20230140293A1

How the values were obtained:
Assay in all cases: cell-based or functional assay
[1] = target: CH0505TF Env, Env-pseudotyped virus produced in 293T cells (HIV-1)
[2] = target: HIV-1 426c.TM (N276D/N460D/N463D) Env on Env-pseudotyped virus produced in 293T cells (HIV-1)
[3] = target: HIV-1 Env 426c.TM4 (S278R.G471S.N460D.N463D), Env-pseudotyped virus produced in 293S GnTI- cells (Man5-enriched) (HIV-1 clade C strain 426c)
[4] = target: HIV-1 Env 426c.TM (N276D.N460D.N463D), Env-pseudotyped virus produced in 293T cells (HIV-1 clade C strain 426c)
[5] = target: HIV-1 clade C strain 426c Env on Env-pseudotyped virus produced in 293s/GnTI-/- cells (Man5-enrichment) (HIV-1)
[6] = target: CH0505TF.G458Y Env, Env-pseudotyped virus produced in 293S GnTI- cells (Man5-enriched) (HIV-1)
[7] = target: HIV-1 Env 426c.TM (N276D.N460D.N463D), Env-pseudotyped virus produced in 293S GnTI- cells (Man5-enriched) (HIV-1 clade C strain 426c)
[8] = target: HIV-1 Env 426c, Env-pseudotyped virus produced in 293T cells (HIV-1 clade C strain 426c)
[9] = target: HIV-1 426c.TM (N276D/N460D/N463D) Env on Env-pseudotyped virus produced in 293s/GnTI-/- cells (Man5-enrichment) (HIV-1)
[10] = target: HIV-1 Env 426c.TM4 (S278R.G471S.N460D.N463D), Env-pseudotyped virus produced in 293T cells (HIV-1 clade C strain 426c)
[11] = target: HIV-1 Env 426c, Env-pseudotyped virus produced in 293S GnTI- cells (Man5-enriched) (HIV-1 clade C strain 426c)
[12] = target: CH0505TF Env, Env-pseudotyped virus produced in 293S GnTI- cells (Man5-enriched) (HIV-1)
[13] = target: CH0505TF.G458Y Env, Env-pseudotyped virus produced in 293T cells (HIV-1)
[14] = target: HIV-1 Env 426c.SM (N276D), Env-pseudotyped virus produced in 293S GnTI- cells (Man5-enriched) (HIV-1 clade C strain 426c)
[15] = target: HIV-1 426c.DM (N460D/N463D) Env on Env-pseudotyped virus produced in 293T cells (HIV-1)
[16] = target: HIV-1 clade C strain 426c Env on Env-pseudotyped virus produced in 293T cells (HIV-1)
[17] = target: HIV-1 Env 426c.DM (N460D.N463D), Env-pseudotyped virus produced in 293S GnTI- cells (Man5-enriched) (HIV-1 clade C strain 426c)
[18] = target: CH0505TF.gly3.276 Env, Env-pseudotyped virus produced in 293T cells (HIV-1)
[19] = target: CH0505TF.gly3.276 Env, Env-pseudotyped virus produced in 293S GnTI- cells (Man5-enriched) (HIV-1)
[20] = target: HIV-1 426c.DM (N460D/N463D) Env on Env-pseudotyped virus produced in 293s/GnTI-/- cells (Man5-enrichment) (HIV-1)
[21] = target: HIV-1 Env 426c.SM (N276D), Env-pseudotyped virus produced in 293T cells (HIV-1 clade C strain 426c)
[22] = target: CH0505TF.gly4 Env, Env-pseudotyped virus produced in 293T cells (HIV-1)
[23] = target: CH0505TF.gly3.461 Env, Env-pseudotyped virus produced in 293S GnTI- cells (Man5-enriched) (HIV-1)
[24] = target: CH0505TF.gly4 Env, Env-pseudotyped virus produced in 293S GnTI- cells (Man5-enriched) (HIV-1)
[25] = target: HIV-1 426c.SM (N276D) Env on Env-pseudotyped virus produced in 293T cells (HIV-1)
[26] = target: CH0505TF.gly3.197 Env, Env-pseudotyped virus produced in 293S GnTI- cells (Man5-enriched) (HIV-1)
[27] = target: HIV-1 426c.SM (N276D) Env on Env-pseudotyped virus produced in 293s/GnTI-/- cells (Man5-enrichment) (HIV-1)
[28] = target: CH0505TF.gly3.461 Env, Env-pseudotyped virus produced in 293T cells (HIV-1)
[29] = target: CH0505.w4.3 Env, Env-pseudotyped virus produced in 293T cells (HIV-1)
[30] = target: HIV-1 Env 426c.DM (N460D.N463D), Env-pseudotyped virus produced in 293T cells (HIV-1 clade C strain 426c)
[31] = target: CH0505TF.gly3.197 Env, Env-pseudotyped virus produced in 293T cells (HIV-1)

Substance	IC50 (µg/ml) in TZM-bl [1]	ID50/IC50 in TZM-bl [2]	IC50 (µg/ml) in TZM-bl [3]	IC50 (µg/ml) in TZM-bl [4]	ID50/IC50 in TZM-bl [5]	IC50 (µg/ml) in TZM-bl [6]	IC50 (µg/ml) in TZM-bl [7]	IC50 (µg/ml) in TZM-bl [8]	ID50/IC50 in TZM-bl [9]	IC50 (µg/ml) in TZM-bl [10]	IC50 (µg/ml) in TZM-bl [11]	IC50 (µg/ml) in TZM-bl [12]	IC50 (µg/ml) in TZM-bl [13]	IC50 (µg/ml) in TZM-bl [14]	ID50/IC50 in TZM-bl [15]	ID50/IC50 in TZM-bl [16]	IC50 (µg/ml) in TZM-bl [17]	IC50 (µg/ml) in TZM-bl [18]	IC50 (µg/ml) in TZM-bl [19]	ID50/IC50 in TZM-bl [20]	other results
3869 (antibody)	> 25 µg/mL	> 25 µg/mL	> 25 µg/mL	> 25 µg/mL	> 25 µg/mL	> 25 µg/mL	> 25 µg/mL	> 25 µg/mL	> 25 µg/mL	> 25 µg/mL	> 25 µg/mL	> 25 µg/mL	> 25 µg/mL	> 25 µg/mL	> 25 µg/mL	> 25 µg/mL	> 25 µg/mL	> 25 µg/mL	> 25 µg/mL	> 25 µg/mL	IC50 (µg/ml) in TZM-bl [21]: > 25 µg/mL; IC50 (µg/ml) in TZM-bl [22]: > 25 µg/mL; IC50 (µg/ml) in TZM-bl [23]: > 25 µg/mL; IC50 (µg/ml) in TZM-bl [24]: > 25 µg/mL; ID50/IC50 in TZM-bl [25]: > 25 µg/mL; IC50 (µg/ml) in TZM-bl [26]: > 25 µg/mL; ID50/IC50 in TZM-bl [27]: > 25 µg/mL; IC50 (µg/ml) in TZM-bl [28]: > 25 µg/mL; IC50 (µg/ml) in TZM-bl [29]: 3.1 µg/mL; IC50 (µg/ml) in TZM-bl [30]: > 25 µg/mL; IC50 (µg/ml) in TZM-bl [31]: > 25 µg/mL
4E10 (antibody)	22 µg/mL	0.98 µg/mL	1.6 µg/mL	0.98 µg/mL	4 µg/mL	10 µg/mL	4 µg/mL	3.32 µg/mL	4 µg/mL	1.66 µg/mL	4 µg/mL	10 µg/mL	8 µg/mL	3.8 µg/mL	1 µg/mL	3.32 µg/mL	3.7 µg/mL	17 µg/mL	13 µg/mL	3.7 µg/mL	IC50 (µg/ml) in TZM-bl [21]: 1.52 µg/mL; IC50 (µg/ml) in TZM-bl [22]: 14 µg/mL; IC50 (µg/ml) in TZM-bl [23]: 12 µg/mL; IC50 (µg/ml) in TZM-bl [24]: 12.3 µg/mL; ID50/IC50 in TZM-bl [25]: 1.52 µg/mL; IC50 (µg/ml) in TZM-bl [26]: 14 µg/mL; ID50/IC50 in TZM-bl [27]: 3.8 µg/mL; IC50 (µg/ml) in TZM-bl [28]: 16 µg/mL; IC50 (µg/ml) in TZM-bl [29]: > 50 µg/mL; IC50 (µg/ml) in TZM-bl [30]: 1 µg/mL; IC50 (µg/ml) in TZM-bl [31]: 21 µg/mL
